Assay results reported in US20180016348A1 (Janssen / Centocor, published 2018).

Tests used:
[1] = biological target: neuraminidase (NA) of H3N2 A/Hong Kong/1/1968 (influenza A virus H3N2 A/Hong …, UniProt Q91MA2 1-469); experiment: flow cytometry on 293-F cells transfected with NA; '-: no binding'
[2] = biological target: T1, neuraminidase (NA) of H1N1 A/Mississippi/3/2001 (influenza A virus H1N1 …); experiment: cell-based or functional assay
[3] = biological target: T2, neuraminidase (NA) of H1N1 A/New Caledonia/20/1999 (influenza A virus H1N1 A/New …); experiment: cell-based or functional assay
[4] = biological target: human FcγRIIIa receptor (V158) (human, UniProt P08637 17-254); experiment: cell-based or functional assay
Sequence of human FcγRIIIa receptor (V158) (P08637 17-254 F176V limits assumed): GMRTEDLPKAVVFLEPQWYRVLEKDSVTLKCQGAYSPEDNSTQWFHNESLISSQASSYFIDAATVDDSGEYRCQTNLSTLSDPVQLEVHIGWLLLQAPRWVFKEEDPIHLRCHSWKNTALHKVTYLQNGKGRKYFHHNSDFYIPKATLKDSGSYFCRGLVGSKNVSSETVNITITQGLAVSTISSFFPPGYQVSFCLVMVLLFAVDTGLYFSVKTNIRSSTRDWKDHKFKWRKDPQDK

[5] = biological target: T3, neuraminidase (NA) of H1N1 A/Puerto Rico/8/1934 (influenza A virus H1N1 A/Puerto …, UniProt P03468 1-454); experiment: flow cytometry on NA-transfected 293-F cells
T3 construct: whole, on cells
T3 sequence (P03468 whole entry): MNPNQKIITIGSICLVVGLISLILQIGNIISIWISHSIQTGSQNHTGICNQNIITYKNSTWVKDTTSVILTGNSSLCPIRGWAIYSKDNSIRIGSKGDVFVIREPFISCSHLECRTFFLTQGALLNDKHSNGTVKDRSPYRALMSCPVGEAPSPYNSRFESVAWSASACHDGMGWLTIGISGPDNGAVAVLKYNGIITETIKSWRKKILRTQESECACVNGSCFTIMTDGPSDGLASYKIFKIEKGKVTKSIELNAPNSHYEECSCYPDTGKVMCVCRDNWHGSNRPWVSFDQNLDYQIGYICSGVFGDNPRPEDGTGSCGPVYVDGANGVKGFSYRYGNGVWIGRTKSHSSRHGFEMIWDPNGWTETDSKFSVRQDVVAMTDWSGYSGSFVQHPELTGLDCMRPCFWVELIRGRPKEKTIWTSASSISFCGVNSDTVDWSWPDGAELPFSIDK

[6] = biological target: T1, neuraminidase (NA) of H1N1 …; experiment: cell-based or functional assay; remark: listed apart in the source
[7] = biological target: T2, neuraminidase (NA) of H1N1 A/New …; experiment: cell-based or functional assay; remark: listed apart in the source
[8] = biological target: T4, neuraminidase (NA) of H3N2 A/Brisbane/10/2007 (influenza A virus H3N2 …); experiment: cell-based or functional assay
[9] = biological target: T5, neuraminidase (NA) of H3N2 A/Wisconsin/67/2005 (influenza A virus H3N2 …); experiment: cell-based or functional assay
[10] = biological target: T4, neuraminidase (NA) of H3N2 …; experiment: cell-based or functional assay; remark: listed apart in the source
[11] = biological target: T5, neuraminidase (NA) of H3N2 …; experiment: cell-based or functional assay; remark: listed apart in the source

Sequence of neuraminidase (NA) of H3N2 A/Hong Kong/1/1968 (Q91MA2 whole entry): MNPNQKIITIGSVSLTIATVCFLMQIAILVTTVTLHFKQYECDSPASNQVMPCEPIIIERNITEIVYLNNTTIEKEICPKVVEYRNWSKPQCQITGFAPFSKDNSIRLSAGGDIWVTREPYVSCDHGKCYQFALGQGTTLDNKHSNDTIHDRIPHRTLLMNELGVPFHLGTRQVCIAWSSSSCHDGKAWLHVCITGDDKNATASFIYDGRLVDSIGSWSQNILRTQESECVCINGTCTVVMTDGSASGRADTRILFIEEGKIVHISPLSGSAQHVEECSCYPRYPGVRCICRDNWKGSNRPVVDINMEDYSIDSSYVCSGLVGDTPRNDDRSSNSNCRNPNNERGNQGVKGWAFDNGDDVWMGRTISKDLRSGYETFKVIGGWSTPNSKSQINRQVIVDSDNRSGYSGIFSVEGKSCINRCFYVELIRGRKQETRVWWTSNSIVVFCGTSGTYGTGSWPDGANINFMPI

Row | Binder | binding result [1] | IC50 of virus neutralization (VNA on MDCK cells) [2] [µg/mL] | IC50 of virus neutralization (VNA on MDCK cells) [3] [µg/mL] | ADCC reporter D/A ratio; A549 targets infected with H1N1 A/Brisbane/59/2007 [4] | ADCC reporter D/A ratio; A549 targets infected with H1N1 A/Mississippi/03/2001 [4] | ADCC reporter D/A ratio; A549 targets infected with H1N1 A/New Caledonia/20/1999 [4] | ADCC reporter D/A ratio; A549 targets infected with H5N1 A/Hong Kong/156/1997 [4] | ADCC reporter EC50; A549 targets infected with H1N1 A/Brisbane/59/2007 [4] [µg/mL] | ADCC reporter EC50; A549 targets infected with H1N1 A/Mississippi/03/2001 [4] [µg/mL] | ADCC reporter EC50; A549 targets infected with H1N1 A/New Caledonia/20/1999 [4] [µg/mL] | ADCC reporter EC50; A549 targets infected with H5N1 A/Hong Kong/156/1997 [4] [µg/mL] | binding result [5] | EC50 of neuraminidase inhibition (NA-XTD assay, whole virus) [6] [µg/mL] | EC50 of neuraminidase inhibition (NA-XTD assay, whole virus) [7] [µg/mL] | IC50 of virus neutralization (VNA on MDCK cells; one experiment) [8] [µg/mL] | IC50 of virus neutralization (VNA on MDCK cells; one experiment) [9] [µg/mL] | EC50 of neuraminidase inhibition (NA-XTD assay, whole virus; one experiment) [10] [µg/mL] | EC50 of neuraminidase inhibition (NA-XTD assay, whole virus; one experiment) [11] [µg/mL]
1 | CR12040 (antibody, V domains shown) VH: QVQLVQSGAEVKKPGASVKVSCKASGYTFTNYYINWVRQAPGQGLEWMGRINPLHGGTGFAEKFQGRLTMTRDTSTSTVDMELSSLRSEDTAIYYCVKERDTTMATDYYGRSGCFDYWGQGTLVTVSS VL: EIVLTQSPATLSLSPGERATLSCRASQSVRSYLAWYQQKPGQAPRLLIYDASNRATGIPARFSGSGSGTDFSLTISSLEPEDFAVYYCQQRSNWPITFGQGTRLEIK | no binding (tested: 5 µg/ml) | > 50 | > 50 | 2.73 | 9.26 | 3.19 | 3.1 | 3.83 | 0.06 | 0.07 | 1.22 | binds | > 100 | > 100 | – | – | – | –
2 | CR12041 (antibody, V domains shown) VH: EVQLVQSGAEVKKPGASVKVSCKAAGYTFTNYYLHWVRQAPGQGLESMGIINPSSGGTIYAQKFQGRVTMTRDTSTSTVFMELSSLTSEDTAVYYCARAGEGKSRFGEGKLRYFYYGMDVWGQGTTVTVSS VL: not shown | no binding (tested: 0.5 µg/ml) | 0.59 | 0.74 | 2.15 | 8.38 | 4.08 | 5.48 | 1.97 | 0.58 | 1.61 | 1.09 | – | > 100 | > 100 | – | – | – | –
3 | CR12044 (antibody, V domains shown) VH: EVQLVQSGSEVRKPGSTVKVSCKGSGGAFRTSVIHWVRQAPGQGLRWMGGIIPTLDTANHAQEFQGRATITADESTTTAYLELSSLRSEDSAVYYCATDYGGNSDRLGSYSFAFDVWGQGTTVTVSS VL: not shown | no binding (tested: 5 µg/ml) | 0.37 | 0.13 | 6.49 | 20.2 | 17.5 | 2.37 | 0.28 | 5.19 | 0.93 | 11.6 | binds | 0.96 | 0.17 | – | – | – | –
4 | CR12042 (antibody, V domains shown) VH: EVQLVESGAEVRKPGSSVKVSCTASGDTFSSYTITWVRQAPGQGLEWMGEIIPIFGTANYAQKFQGRVTLTADESTTTAYMDLSSLRSEDTAVYYCARGPDNHSDRYFYYGMDVWGQGTTVTVSS VL: EIVLTQSPLSLPVTPGEPASISCRSSQSLLHSTGNNYLDWYLQKPGQSPQLLIYLGSNRASGVPDRFSGSGSGTDFTLKISRVEAEDVGVYYCMQALQTPRTFGQGTKVDIK | no binding (tested: 5 µg/ml) | 0.2 | 0.2 | 6.11 | 17.4 | 17.7 | 6.87 | 0.08 | 0.14 | 0.28 | 0.01 | binds | 0.12 | 0.18 | > 100 | > 100 | 4.8 | 1.87
